Data taken from US20260132218A1 (A AND G PHARMACEUTICAL, published 2026).

How the values were obtained:
[1] = molecular target: T1, human recombinant His-tagged HER2 extracellular domain (human, UniProt P04626 23-652); assay: competition EIA on coated HER2, competitor trastuzumab-biotin; given as ED50
T1 construct: extracellular domain; also called HER2-ECD; HER-ECD
Description: (§1) Method: 96 well high binding EIA plates were coated with 10 ng of HER2 protein overnight at 4 C. […] After washing, colorimetric substrate 3,3′,5,5′-tetramethylbenzidine (TMB) was added and absorbance at 620 nm was determined after 10 minutes.

[2] = molecular target: HER2 on SKBR3 cells (human, UniProt P04626 23-1255); assay: cell-based or functional assay
[3] = molecular target: T1, human recombinant His-tagged HER2 …; assay: blocking ELISA (competition EIA): HER2 protein coated on the plate, pre-incubated with the antibody, then competitor anti-HER2 TRAST-biotin, streptavidin-HRP; signal as % of h.IgG
Description: as §1

IC50 [1] [µg/mL] | Migration assay, at 50 ug/ml (inhibition of migration of SKBR3 cells) [2] [%] | IC50 (read off the curve) [3] [µg/mL] | Internalization: Fluorescent Units [2] [Fluorescent Units] | Binder | Killing assay at 0.3 ug/ml Ab (2 nM), DM1 (6 nM), 72 hr [2] [%]
0.09 | 38 | – | – | 2A2 (antibody, IgG2a, V domains shown, also called AGRD017-2A2; fully human 2A2 antibody) VH: EVQLVESGGGLVQPGRSLRLSCAASGFTFDDYAMHWVRQAPGKGLEWVSGISWNGGTLGYADSVKGRFTISRDNAKNSLYLQMNSLRAEDTALYYCAKDTGSYSHWYFDLWGRGTLVTVSS VL: EIVMTQSPATLSVSPGERATLSCRASQSVRSNLAWYQQKPGQAPRLLIYGASTRATGIPARFSGSGSGTEFTLTISSLHSEDFAVYYCQQYNNWPTFGQGTKVEIK | –
0.1 | 32 | – | – | 8C1 (antibody, IgG2a, V domains shown, also called AGRD017-8C1; fully human 8C1 antibody) VH: EVQLVESGGGLVQPGRSLRLSCTASGFTFDDYAMHWVRQAPGKGLEWVSGISWNGGTLGYADSVKGRFTISRDNAKNSLYLQMNSLRAEDTALYYCAKDTGSYSHWYFDLWGRGTLVTVSS VL: EIVMTQSPATLSVSPGERATLSCRASQSVRSNLAWYQQKPGQAPRLLIYGASTRATGIPARFSGSGSGTEFTLTISSLHSEDFAVYYCQQYNNWPTFGQGTKVEIK | –
– | 59 | ~0.1 | – | 2D7 (antibody, IgG1, V domains shown, also called AGRD017-2D7; fully human 2D7 antibody) VH: EVQLVESGGGLVQPGRSLRLSCAASGFTFDDYAMHWVRQAPGKGLEWVSGISWNSGTMGYAGSVKGRFTISRDNAKNSLYLQMNSLRAEDTALYYCAKDTGSYSHWYFDLWGRGTLVTVSS VL: not shown | 50
0.06 | 24 | – | – | 3G7 (antibody, IgG1, V domains shown, also called AGRD017-3G7; fully human 3G7 antibody) VH: EVQLVESGGGLVQPGRSLRLSCAASGFTFDDYAMHWVRQAPGKGLEWVSGVSWNGGTMGYAGSVKGRFTISRDNAKNSLYLQMNSLRAEDTALYYCAKDTGSYSHWYFDLWGRGTLVTVSS VL: EIVMTQSPATLSVSPGERATLSCRASQSVRSNLAWYQQKPGQAPRLLIYGASTRATGIPGRFSGSGSGTEFILTISSLQSEDFAVYYCQQYNNWPTFGQGTKVEIK | –
0.04 | 45 | – | 9000 | 12E3 (antibody, IgG1, V domains shown, also called AGRD017-12E3; fully human 12E3 antibody) VH: EVQLVGSGGGLVQPGRSLRLSCAASGFTFDDYAMHWVRQAPGKGLEWVSGISWNGGTLGYAGSVKGRFTISRDNAKNSLYLQMNSLRAEDTALYYCAKDTGSYSHWYFDLWGRGTLVTVSS VL: EIVMTQSPATLSVSPGERATLSCRASQSVRSNLAWYQQKPGQAPRLLIYGASTRATGIPARCSGSGSGTEFTLTISSLQSEDFAVYYCQQYNNWPTFGQGTKVEIK | –
0.06 | 32 | – | – | 11D7 (antibody, V domains shown, Hybridoma antibody from TC-mAb mice; also called AGRD017-11D7; fully human 11D7 antibody) VH: EVQLVESGGGLVQPGRSLRLSCAASGFTFDDYAMHWVRQAPGKGLEWVSGIAWNGGILGYADSVKGRFTISRDNAKNSLYLQMNSLRAEDTALYYCAKDTGSYSHWYFDLWGRGTLVTVSS VL: EIVMTQSPATLSVSPGERATLSCRASQSVRSNLAWYQQKPGQAPRLLIYGASTRATGIPARFSGSGSGTEFTLTISSLQSEDFAVYCCQQYNNWPTFGQGTKVEIK | –
